{
  "source": "FireProtDB (doi:10.1021/bi9621829)",
  "parents": {"B1": {"name": "Lysozyme C, P61626 (parent)", "chain": "MKALIVLGLVLLSVTVQGKVFERCELARTLKRLGMDGYRGISLANWMCLAKWESGYNTRATNYNAGDRSTDYGIFQINSRYWCNDGKTPGAVNACHLSCSALLQDNIADAVACAKRVVRDPQGIRAWVAWRNRCQNRDVRQYVQGCGV"}},
  "variants_of": "B1",
  "conditions": "Homo sapiens, pH 2.7, Thermal, DSC, glycine 0.05 M, reversible: yes, structure 1LZ1, whole UniProt chain shown",
  "data": [
    {"variant": "V111A", "values": [
      {"measurement": "Tm", "result": 62.6, "unit": "°C"},
      {"measurement": "change of melting temperature, mutant - wild type (higher = more stable)", "result": -2.3, "unit": "°C"},
      {"measurement": "heat capacity change of unfolding", "result": 1.53, "unit": "kcal/mol/K"},
      {"measurement": "unfolding enthalpy (calorimetric)", "result": 112, "unit": "kcal/mol"},
      {"measurement": "unfolding enthalpy (van 't Hoff)", "result": 120, "unit": "kcal/mol"}
    ]},
    {"variant": "V143A", "values": [
      {"measurement": "ddG of mutation (higher = less stable)", "setting": "64.9 °C", "result": 1.32, "unit": "kcal/mol"},
      {"measurement": "heat capacity change of unfolding", "setting": "64.9 °C", "result": 1.29, "unit": "kcal/mol/K"},
      {"measurement": "Tm", "result": 60.9, "unit": "°C"},
      {"measurement": "change of melting temperature, mutant - wild type (higher = more stable)", "result": -4, "unit": "°C"},
      {"measurement": "heat capacity change of unfolding", "result": 1.29, "unit": "kcal/mol/K"},
      {"measurement": "unfolding enthalpy (calorimetric)", "result": 113, "unit": "kcal/mol"},
      {"measurement": "unfolding enthalpy (van 't Hoff)", "result": 116, "unit": "kcal/mol"}
    ]},
    {"variant": "V139A", "values": [
      {"measurement": "ddG of mutation (higher = less stable)", "setting": "64.9 °C", "result": 1.44, "unit": "kcal/mol"},
      {"measurement": "heat capacity change of unfolding", "setting": "64.9 °C", "result": 1.53, "unit": "kcal/mol/K"},
      {"measurement": "Tm", "result": 60.4, "unit": "°C"},
      {"measurement": "change of melting temperature, mutant - wild type (higher = more stable)", "result": -4.5, "unit": "°C"},
      {"measurement": "heat capacity change of unfolding", "result": 1.53, "unit": "kcal/mol/K"},
      {"measurement": "unfolding enthalpy (calorimetric)", "result": 110, "unit": "kcal/mol"},
      {"measurement": "unfolding enthalpy (van 't Hoff)", "result": 112, "unit": "kcal/mol"}
    ]},
    {"variant": "V92A", "values": [
      {"measurement": "ddG of mutation (higher = less stable)", "setting": "64.9 °C", "result": 0.36, "unit": "kcal/mol"},
      {"measurement": "heat capacity change of unfolding", "setting": "64.9 °C", "result": 1.48, "unit": "kcal/mol/K"},
      {"measurement": "Tm", "result": 63.8, "unit": "°C"},
      {"measurement": "change of melting temperature, mutant - wild type (higher = more stable)", "result": -1.1, "unit": "°C"},
      {"measurement": "heat capacity change of unfolding", "result": 1.48, "unit": "kcal/mol/K"},
      {"measurement": "unfolding enthalpy (calorimetric)", "result": 114, "unit": "kcal/mol"},
      {"measurement": "unfolding enthalpy (van 't Hoff)", "result": 120, "unit": "kcal/mol"}
    ]},
    {"variant": "V148A", "values": [
      {"measurement": "ddG of mutation (higher = less stable)", "setting": "64.9 °C", "result": 0.84, "unit": "kcal/mol"},
      {"measurement": "heat capacity change of unfolding", "setting": "64.9 °C", "result": 1.51, "unit": "kcal/mol/K"},
      {"measurement": "Tm", "result": 62.3, "unit": "°C"},
      {"measurement": "change of melting temperature, mutant - wild type (higher = more stable)", "result": -2.6, "unit": "°C"},
      {"measurement": "heat capacity change of unfolding", "result": 1.51, "unit": "kcal/mol/K"},
      {"measurement": "unfolding enthalpy (calorimetric)", "result": 111, "unit": "kcal/mol"},
      {"measurement": "unfolding enthalpy (van 't Hoff)", "result": 119, "unit": "kcal/mol"}
    ]},
    {"variant": "V128A", "values": [
      {"measurement": "ddG of mutation (higher = less stable)", "setting": "64.9 °C", "result": -0.53, "unit": "kcal/mol"},
      {"measurement": "heat capacity change of unfolding", "setting": "64.9 °C", "result": 1.24, "unit": "kcal/mol/K"},
      {"measurement": "Tm", "result": 66.4, "unit": "°C"},
      {"measurement": "change of melting temperature, mutant - wild type (higher = more stable)", "result": 1.5, "unit": "°C"},
      {"measurement": "heat capacity change of unfolding", "result": 1.24, "unit": "kcal/mol/K"},
      {"measurement": "unfolding enthalpy (calorimetric)", "result": 116, "unit": "kcal/mol"},
      {"measurement": "unfolding enthalpy (van 't Hoff)", "result": 122, "unit": "kcal/mol"}
    ]},
    {"variant": "V117A", "values": [
      {"measurement": "ddG of mutation (higher = less stable)", "setting": "64.9 °C", "result": 0.98, "unit": "kcal/mol"},
      {"measurement": "heat capacity change of unfolding", "setting": "64.9 °C", "result": 1.58, "unit": "kcal/mol/K"},
      {"measurement": "Tm", "result": 61.9, "unit": "°C"},
      {"measurement": "change of melting temperature, mutant - wild type (higher = more stable)", "result": -3, "unit": "°C"},
      {"measurement": "heat capacity change of unfolding", "result": 1.58, "unit": "kcal/mol/K"},
      {"measurement": "unfolding enthalpy (calorimetric)", "result": 111, "unit": "kcal/mol"},
      {"measurement": "unfolding enthalpy (van 't Hoff)", "result": 117, "unit": "kcal/mol"}
    ]},
    {"variant": "V20A", "values": [
      {"measurement": "ddG of mutation (higher = less stable)", "setting": "64.9 °C", "result": 1.51, "unit": "kcal/mol"},
      {"measurement": "heat capacity change of unfolding", "setting": "64.9 °C", "result": 1.56, "unit": "kcal/mol/K"},
      {"measurement": "Tm", "result": 60.3, "unit": "°C"},
      {"measurement": "change of melting temperature, mutant - wild type (higher = more stable)", "result": -4.6, "unit": "°C"},
      {"measurement": "heat capacity change of unfolding", "result": 1.56, "unit": "kcal/mol/K"},
      {"measurement": "unfolding enthalpy (calorimetric)", "result": 112, "unit": "kcal/mol"},
      {"measurement": "unfolding enthalpy (van 't Hoff)", "result": 114, "unit": "kcal/mol"}
    ]},
    {"variant": "V118A", "values": [
      {"measurement": "ddG of mutation (higher = less stable)", "setting": "64.9 °C", "result": 0.26, "unit": "kcal/mol"},
      {"measurement": "heat capacity change of unfolding", "setting": "64.9 °C", "result": 1, "unit": "kcal/mol/K"},
      {"measurement": "Tm", "result": 64.1, "unit": "°C"},
      {"measurement": "change of melting temperature, mutant - wild type (higher = more stable)", "result": -0.8, "unit": "°C"},
      {"measurement": "heat capacity change of unfolding", "result": 1, "unit": "kcal/mol/K"},
      {"measurement": "unfolding enthalpy (calorimetric)", "result": 110, "unit": "kcal/mol"},
      {"measurement": "unfolding enthalpy (van 't Hoff)", "result": 120, "unit": "kcal/mol"}
    ]}
  ]
}
